From a protein production outcome set (Wang et al. 2014)

assay: label from the status in PepcDB records

Sequence	protein production
MTSQVSSTTEQADEPVVGEQRKPAGAKDVRRLDRVIIRFAGDSGDGMQLTGDRFTSETASFGNDLSTLPNFPAEIRAPAGTLPGVSSFQLHFADHDILTPGDAPNVLVAMNPAALKANVSDLPRGAEVIVNTDEFTKRAMQKVGYGTSPLEDGSLDGYSVHPVPLTTLTVEALKEFELSRKEAERSKNMFALGLLSWMYHRPTEGTEKFLTTKFAKKPAIAAANIAAFRAGWNFGETTEDFAVSYEVAPAQSAFPAGTYRNISGNLALSYGLIAASRQADLPLYLGSYPITPASDILHELSKHKNFGVRTFQAEDEIAGIGAALGAAFGGSLAVTTTSGPGVALKSETIGLAVSLELPLLVVDIQRGGPSTGLPTKTEQADLLQAMYGRNGEAPVPVVAPRTPADCFEAAIEAARIALTYRTPVFLLSDGYLANGSEPWRIPETDGLPDLRVRFAQGPNHTLDDGTEVFWPYKRDPGTLARPWAIPGTPGLEHRIGGIEKQDGTGNISYDPANHDFMVRTRQAKIDGIDVPDIEVDDPDGASALVLGWGSTYGPITAAVRRLRTAGESIAQAHLRHLNPFPSNLGAVLKGYDKVVIPEMNLGQLATLIRAKYLVDAHSYNQVNGMPFKAEQLATALKEAIDD	failed
MTSSFTDYCKFFNRILSEVQETQEQAIIKGAHLVSEAVMNGGRFYVFGSGHSHMIAEEIYNRAGGLALVTAILPPELMLHERPNKSTYLERIEGLSKSYLKLHQVTNKDVIMIISNSGRNTVPVEMAIESRNIGAKVIAMTSMKHSQKVTSRHKSGKKLYEYADVVLDNGAPVGDAGFQIANSEIYSGATSDSIGCFLAQALIVETLHLLVQQGFEPPVFKSSNVDGADLYNDKIFNEYVKW	not failed
MTSSINSSPLNAIADQALGLDDAAVPAAIEPASDEPSFASLGLSPEIVSALEAAGYVKPTPVQQRAIPAGIAGRDLLVSSPTGSGKTAAFMLPAIERFAQLQKTLAQQPRTPREPSQGDRRVRRPQPVARPGLLVLTPTRELAMQVTTAASTYGKHLKRLRTVSILGGVAYGQQLMLLAKNPEILVATPGRLLDHLERGRIDLSELKMLVLDEADRMLDMGFIDDIETIVAATPASRQTMLFSATLDGKIGSLTGRLLKDPERIEIQQRLESRTNIAQTVHYVDDRDHKDRLLDHLLRDDALDQAIIFTATKIDADQLAGRLADAGFESAALHGDLPQGARNRTIRALRERRVRVLVATDVAARGIDIPGITHVFNYDLPKFAEDYVHRIGRTGRAGRSGTAVSLVHHAEQGALKRIERFVRSPLPVNVIEGFEPRKAPARTGSTGGRGRPGGGNGGRRFGGKPGGGHAGAGRSYGGGNGGGWSGKPSGSRDGGPRRDGQRSSGPRRSNSAS	failed
MTTDAPALLPALQARVRETAHARTPAGCPCGAATLADRPDATVVRHAGTVAKAHAADADPAELSLRVTAAARLPGVLLPPLAPAPVDLHGRLVTYWPYGTPVDPEDPDAAPWEAAATLLARLHRTPVPAALPPMRGPAKAARAAARLSDTARDHPATAPVLAAWAALPAWARGEAAMPGPAALCHGDLHLGQLIRHPAPDGPWLLIDVDDLGTGVPAWDLARPAAWYACGLLPPEEWHRFLTAYRAAGGPAVPAEGDPWPALDVPARALTAQTAARAVAKAVLAGRALDEVERSLVDACARMASVRPADPRG	failed
MTTEPVDYVSPLVGTQSKHALSTGNTYPAIAMPWGMNFWVAQTGKMGDGWAYTYDADKIRGFKQTHQPSPWINDYGQFAIMPVTGKVVFDQDQRASWFSHKAEVAKPYYYKVYLADHDVTTEIAPTSRAAMFRFTFPESKDSYVVVDAFDNGSYVKVIPEENKIIGYTTKNSGGVPENFKNYFVLVFDKPFTFTAAVTNGNIRPGELEHHHHHH	failed
MTTESAWTRWPSREALGREGLSRPRRMLAWTVRALVLAMLLWGAFSSSHVHGWGAVAAAAGVLLAAGASWAFFRTTLQHRLWPSLALIAVLLGIAIVAQTAGFQVPALVIWCGCAVSALERLPLAAALPVTTAALAAYAAVDNDVWLTTAATIAGLFLAGYVLRLDAEARGSAQRLLAQERAARAAETQSAALAERARIAREIHDVLAHSLSAQLVHLEAARLLIERGADREQILGRVVAARGMAREGLAETRQALSALRGEISPLEDFLSELVAFEDGADVTVSGERRLLTAEASQAVRRVAQEALTNVRKHAPGAKVQVKLEYGERQVTLHVRDSGGKPGDLTGSGAGYGLLGMRERAELLGGSLEAGREEKGFVVTLKVPA	failed
MTTFNYTNILTQAVDELSESQSYKGLFHQHKDGDPLPSAKSLYKIVELARAIIFPGYFGNSTVNSHTINYHIGVNVETLFGLLTEQILAGLCFGQENSKNATDDNEPCRETASLLAARFISKLPELRRILATDVEAAYYGDPAATCFGEIISCYPAIRAISNYRIAHELLILGVPLIPRFITEMAHSETGIDIHPGAQIGHHFTIDHGTGVVIGATSIIGNNVKLYQGVTLGAKSFPLDNNGNPIKGIPRHPILEDDVIVYSNATILGRVTIGKGATVGGNIWVTENVPAGSRIVQRKNKDELEHHHHHH	not failed
MTTFSVIMATYNRGRHILPSIQSVLRQTCRDFELLVVGDCCTDDTADVVRALASPQIRWLNLPERGGSQAFPNNAGIEMSRGRYIAYLGHDDIWAPDHLQALADLFGHTQQPDFAVSGAIFHGPRASNFRWVTGIFDESDTALKHFFPPSSFGHRRDVADRIGKWRHPKEITAPVDADFLLRAARFGMNFVSTQRITVQKFAAGHRYLSYTGHTSDEQERMVRRMARPGYDGYLASELAKAKAAGGYMVVVHPDYERYENGQVSTQNAMAKGVVRPDLRNLRQREVIKQDNSPKALDWVPHQSGGDWVLWAGRNPRPKLLVPFKYAGKARIRLDIRHPLREALTKLKLSVNGQPAVASLGKVRQEGNLWNAQATFETALRRDDHTILELHLTRLQRPAARNGIGVGDMEVTPLGWRSIVAKGTRLLAKFRPAC	failed
MTTIDPRSELVDGRRRAGARVDAVGAAALLSAAARVGVVCHVHPDADTIGAGLALALVLDGCGKRVEVSFAAPATLPESLRSLPGCHLLVRPEVMRRDVDLVVTVDIPSVDRLGALGDLTDSGRELLVIDHHASNDLFGTANFIDPSADSTTTMVAEILDAWGKPIDPRVAHCIYAGLATDTGSFRWASVRGYRLAARLVEIGVDNATVSRTLMDSHPFTWLPLLSRVLGSAQLVSEAVGGRGLVYVVVDNREWVAARSEEVESIVDIVRTTQQAEVAAVFKEVEPHRWSVSMRAKTVNLAAVASGFGGGGHRLAAGYTTTGSIDDAVASLRAALGLEHHHHHH	not failed
MTTIFIEKATILDAEKLTEIMTRTFDEEEKRWLCGQGDVIDYNIQPPGYSSVEMMRYSIEELDCYKVIMDGKIIGGIIVTISGKSYGRIDRIFVEPVYQGKGIGSYVIKLIEEEYPSIRIWDLETSSRQLNNHHFYKKMGYETIFKSEDEYCYVKRIT	failed
MTTILTVFTHAGGAGKTSIAGNIAHEFAQRGQHVLLIDGDPQSNLTTNMGVQDAELHETLFDVLSGDAPLPAPRHVHGFDLIPAVIDLAEVEPSIPGRVGGILALRDALQKESGRWDTVIIDSPPSLGQLAAACALAADALVVPIMTRSKGLNALRGLNRVMPQYHRLRPDLHVAAYVPTMCKSNRKEDSELLGIVREDLPHVTSPIVERGAVWNGAAEKGLPVTVFAPRSKEAEEIRKITSDLVEFLQRNAPERGER	failed
MTTPIALRDWRLLAAGCGGLLLLAAAITLHSHWGDFLQWCLATQITLHRYLVMYLLLLNNHQYSGGIWLLVGAFLYGVLHAVGPGHGKFIVTTYLSTNQESLTAARVVPFLGSLLQGVTAILFVFILAVGLNLAAGDLSASRWYVEKISALTIGVFGAYVIFRALQSLWPTKQVIRRLTPAHQHDASCGCGHHGVGQDMQGADWKTRLGVVLAIGVRPCSGAIMILLFANALGIVSWGIAAVMSMALGTALSILGLSLLVHYARHRTVKRLVTNHRPRPWLVPLVKILGGLALILFAVGLFFSVVPISANGDFIAAGC	failed
MTTPNRFVAGAIDLGEVKARAEARSQAQRAGQSSVTEVEPTVTITMDNVEEQLIKRSMQVPVVVLIGTPRSPDSEQLRAD	failed
MTTPSRRILILVGHPDPAPERFCRALAEAYAQGAMEGGHEVRRADIGSMDIALLESQAAFQVDDAPQSIRDLRADIVWAEHLVLVFPLWLGGAPAKLKAALEQVCRGGFGFEVGPRGWSSKLAGRSARMVLTMGMPSAIFRLVFGSHGLKAVTQGIFMLAGVKPRRASIIGGVEAIGAGGRSRWLKRMGHLGEAAR	failed
MTTPTPTPTPTSQSLAAPFAQGVEGVYFDGRSSRDRAATLRVLGSGDLSSGAPLAVLRVAPTDGEPGSEQQWPLRQVQFDPPLAGVRRVVKLPDGGRFETNDDRAITALEAAVGRNRGLRGVRRLESDWGLTLGAVVTLGLFVWGFLTYGLPAMARSAAAATPRSVLTSFDTSAIEVLDNGTFMGPTHLSAARQAQLQREFKDVAQWAGGGYPYRLLLRDGTPQANGDKDSPAPSGSIGTNAFALPGGTVVMTEQLVKLAHSDRELMGVLAHETGHVTHRHSLSSIYQGLGLTLLTTAVTGDLIGASTFAAAVPTWLLKNGYSRQSETQSDEVAGRFLMERYGTTKPLRDVLARLETEDENADENSVKRDDPGAFLQTHPGTAERIRHLREIEQNWPQRRGK	failed
MTTRLLQLTRPHYRLLSLPLQKPFNIKRQMSAANPSPFGNYLNTITKSLQQNLQTCFHFQAKEIDIIESPSQFYDLLKTKILNSQNRIFIASLYLGKSETELVDCISQALTKNPKLKVSFLLDGLRGTRELPSACSATLLSSLVAKYGSERVDCRLYKTPAYHGWKKVLVPKRFNEGLGLQHMKIYGFDNEVILSGANLSNDYFTNRQDRYYLFKSRNFSNYYFKLHQLISSFSYQIIKPMVDGSINIIWPDSNPTVEPTKNKRLFLREASQLLDGFLKSSKQSLPITAVGQFSTLVYPISQFTPLFPKYNDKSTEKRTILSLLSTITSNAISWTFTAGYFNILPDIKAKLLATPVAEANVITASPFANGFYQSKGVSSNLPGAYLYLSKKFLQDVCRYRQDHAITLREWQRGVVNKPNGWSYHAKGIWLSARDKNDANNWKPFITVIGSSNYTRRAYSLDLESNALIITRDEELRKKMKAELDNLLQYTKPVTLEDFQSDPERHVGTGVKIATSILGKKL	failed
MTTRRLALFDLDHTLLPLDSDYQWADFLARTGRAGDPAEARRRNDDLMERYNRGELTAEQAAEFMLGLLAAHSPVELAAWHEEFMRDVIRPSLTAQAVDVVRGHLAAGDLCALVTATNSFVTAPIARAFGVQHLIATDPEYRDGRYTGRIEGTPSFREGKVVRVNQWLAGMGLALGDFAESYFYSDSVNDVPLLEAVTRPIAANPSPGLREIAQARGWQVIDLFDHLEDAKS	not failed
MTTSKVTYQGDLRTSAIHLQSNNEIITDAPVDNQGKGEAFSPTDLLATSLASCMLTIIGIKARDMEIDIAGTTAEVTKVMAADPRRVSEVHIAITFNQELDDKTQKIFYNTALTCPVAKSIHPDIFQKVIIHSKSY	not failed
MTTWKELTDNNPAHSENYAQRWRNLAAAGNDIYGEARLIDAMAPRGAKILDAGCGQGRIGGYLSKQGHDVLGTDLDPILIDYAKQDFPEARWVVGDLSVDQISETDFDLIVSAGNVMGFLAEDGREPALANIHRALGADGRAVIGFGAGRGWVFGDFLEVAERVGLELENAFESWDLKPFVQGSEFLVAVFTKK	not failed
MTVAPTTHVPPARPAAYRELVRQRNSFTVAMTLTFLVLYFLLPLLAGYNKPLMATKVFGNVTFGYVLAFLEFLMGWVMAAIYVRKARTFDRLALEAQVPGGGA	failed
MTVDEWRLLDVSTAFGSGENSVPDFGESADDDAVVVWLVKGEEAVEKLSEIVFGVNLVLENHLKHGLSEI	failed
